B1: POU domain, class 4, transcription factor 3, residues 185 to 256; numbered along this chain, Q15319 (parent)
chain: RELEAFAERFKQRRIKLGVTQADVGAALANLKIPGVGSLSQSTICRFESLTLSHNNMIALKPVLQAWLEEAE

± gives the uncertainty stated by the source.

The series covers variants of B1. Description: abundance fitness (aPCA) (normalised: wild type 0, dead -1); higher = more abundant; growth selection in yeast, the domain comes from the species named. The conditions noted are these: Homo sapiens.
As for E70V, the abundance fitness is -0.307 ± 0.036.

Regarding E70F, the abundance fitness is -0.397 ± 0.043.

As to E70R, the abundance fitness was -0.036 ± 0.033.

Consider E70I, for which the abundance fitness is -0.348 ± 0.054.

For the variant E70D, the abundance fitness is -0.118 ± 0.069.

For V19M, the abundance fitness worked out at 0.12 ± 0.058.

Regarding V19P, the abundance fitness is -0.835 ± 0.048.

As for V19N, the abundance fitness was -0.154 ± 0.077.

On to V19G, for which the abundance fitness is -0.391 ± 0.25.

Consider V19Y, for which the abundance fitness was -0.01 ± 0.066.

With S38P, the abundance fitness is 0.055 ± 0.041.

S38V: the abundance fitness was determined as 0.065 ± 0.16.

Consider S38R, for which the abundance fitness was -0.052 ± 0.14.

As to S38H, the abundance fitness is -0.018 ± 0.036.

For the variant F47C, the abundance fitness is -0.982 ± 0.15.

For the variant F47H, the abundance fitness was -1.06 ± 0.33.

In the case of F47A, the abundance fitness is -0.866 ± 0.14.

As to F47N, the abundance fitness was -1.09 ± 0.27.

With F47G, the abundance fitness is -1.01 ± 0.23.

Consider P34R, for which the abundance fitness is -0.353 ± 0.12.

In the case of P34A, the abundance fitness stood at 0.029 ± 0.15.

With P34L, the abundance fitness is -0.386 ± 0.067.

P34T: the abundance fitness was -0.058 ± 0.094.

With P34Y, the abundance fitness was -0.379 ± 0.14.

As for P34S, the abundance fitness is -0.124 ± 0.061.

Consider P34I, for which the abundance fitness is -0.419 ± 0.32.

For the variant P34V, the abundance fitness is -0.271 ± 0.14.

Turning to P34Q, the abundance fitness is -0.458 ± 0.19.

Regarding P34G, the abundance fitness was -0.313 ± 0.33.

In the case of S53E, the abundance fitness was -0.065 ± 0.084.

Consider S53T, for which the abundance fitness was -0.208 ± 0.11.

With G18D, the abundance fitness is -0.463 ± 0.21.

G18F: the abundance fitness is -0.784 ± 0.14.

G18T: the abundance fitness was -0.884 ± 0.2.

Regarding G18W, the abundance fitness is -1.05 ± 0.2.

On to L3T, for which the abundance fitness is -0.109 ± 0.18.

Regarding L3S, the abundance fitness was -0.359 ± 0.36.

Turning to L3Q, the abundance fitness was -0.227 ± 0.13.

Take P62M: the abundance fitness is -0.56 ± 0.046.

As for P62G, the abundance fitness is -0.244 ± 0.036.

As for P62K, the abundance fitness is -0.177 ± 0.052.

For P62E, the abundance fitness is -0.23 ± 0.049.

Turning to P62V, the abundance fitness is -0.378 ± 0.033.

With P62D, the abundance fitness was -0.413 ± 0.081.

On to P62N, for which the abundance fitness is -0.371 ± 0.094.

With P62H, the abundance fitness was -0.109 ± 0.12.

For P62W, the abundance fitness was -0.689 ± 0.047.

As for W67C, the abundance fitness is -0.496 ± 0.22.

Turning to W67P, the abundance fitness is -0.618 ± 0.1.

Regarding W67H, the abundance fitness was -0.795 ± 0.11.

As to W67F, the abundance fitness is -0.06 ± 0.065.

For the variant W67I, the abundance fitness was -0.752 ± 0.17.

Turning to W67T, the abundance fitness is -0.697 ± 0.11.

On to L17H, for which the abundance fitness is -0.871 ± 0.24.

For the variant L17N, the abundance fitness is -0.474 ± 0.47.

As for L17I, the abundance fitness was -0.359 ± 0.22.

As for L17R, the abundance fitness is -0.543 ± 0.37.

On to I15D, for which the abundance fitness is -0.229 ± 0.071.

Consider I15K, for which the abundance fitness was -0.052 ± 0.094.

Consider I15E, for which the abundance fitness was -0.067 ± 0.079.

I15S: the abundance fitness was -0.183 ± 0.12.

In the case of I15Q, the abundance fitness was -0.321 ± 0.12.

Regarding L68I, the abundance fitness is -0.056 ± 0.069.

In the case of L68W, the abundance fitness was -0.574 ± 0.041.

As for L68N, the abundance fitness is -0.912 ± 0.12.

For L68G, the abundance fitness was -0.685 ± 0.042.

Regarding L68T, the abundance fitness was -0.46 ± 0.038.

As for L68F, the abundance fitness was -0.585 ± 0.067.

L68E: the abundance fitness is -0.503 ± 0.042.

On to L68C, for which the abundance fitness is -0.257 ± 0.072.

Take V36W: the abundance fitness was -0.091 ± 0.11.

V36R: the abundance fitness is -0.332 ± 0.052.

As for V36A, the abundance fitness is -0.089 ± 0.1.

Take V36T: the abundance fitness was -0.3 ± 0.079.

As to V36M, the abundance fitness turned out to be 0.044 ± 0.1.

Turning to V36N, the abundance fitness is -0.234 ± 0.32.

Take V36I: the abundance fitness was determined as 0.117 ± 0.097.

Turning to V36F, the abundance fitness was -0.043 ± 0.071.

With K32T, the abundance fitness is -0.088 ± 0.051.

In the case of K32P, the abundance fitness is -0.158 ± 0.044.

K32Y: the abundance fitness is -0.12 ± 0.051.

Turning to K32W, the abundance fitness is -0.162 ± 0.052.

Regarding K32F, the abundance fitness is -0.174 ± 0.037.

As to K32S, the abundance fitness is -0.031 ± 0.032.

Regarding K32G, the abundance fitness was -0.169 ± 0.039.

As for K32M, the abundance fitness is -0.048 ± 0.061.

Consider N30F, for which the abundance fitness is -0.276 ± 0.1.

On to N30G, for which the abundance fitness is -0.058 ± 0.12.

On to N30P, for which the abundance fitness is -0.267 ± 0.058.

Regarding N30S, the abundance fitness is -0.186 ± 0.098.

N30D: the abundance fitness was -0.184 ± 0.5.

As to L50Q, the abundance fitness is 0.124 ± 0.07.

Consider L50D, for which the abundance fitness is -0.139 ± 0.3.

For the variant L50G, the abundance fitness amounted to 0.043 ± 0.034.

Turning to V24E, the abundance fitness is -1.04 ± 0.23.

Turning to V24H, the abundance fitness is -0.917 ± 0.11.

As for V24W, the abundance fitness was -0.61 ± 0.055.

Turning to V24T, the abundance fitness was -0.565 ± 0.035.

In the case of V24M, the abundance fitness is -0.301 ± 0.041.

For V24S, the abundance fitness is -0.785 ± 0.041.

As to V24K, the abundance fitness is -0.937 ± 0.087.

As to V24G, the abundance fitness was -0.858 ± 0.075.

For the variant V24Q, the abundance fitness is -0.825 ± 0.075.

Regarding V24L, the abundance fitness is -0.137 ± 0.024.

Regarding V24Y, the abundance fitness was -0.962 ± 0.11.

As for I33M, the abundance fitness was -0.283 ± 0.1.

As to I33L, the abundance fitness was 0.062 ± 0.045.

In the case of I33F, the abundance fitness is -0.223 ± 0.088.

Regarding I33N, the abundance fitness is -0.341 ± 0.16.

Regarding I33V, the abundance fitness is -0.515 ± 0.32.

Turning to E8P, the abundance fitness is -0.698 ± 0.19.

As for E8I, the abundance fitness is 0 ± 0.12.

In the case of E8G, the abundance fitness was -0.098 ± 0.051.

In the case of L60A, the abundance fitness is -0.289 ± 0.17.

Take L60K: the abundance fitness was -0.859 ± 0.3.

For S42T, the abundance fitness was -0.116 ± 0.079.

Consider S42I, for which the abundance fitness was -0.363 ± 0.15.

As to S42Q, the abundance fitness was found to be 0.017 ± 0.07.

Take S42M: the abundance fitness was -0.1 ± 0.099.

S42K: the abundance fitness is 0.046 ± 0.11.

Consider D23T, for which the abundance fitness was -0.307 ± 0.18.

For L64E, the abundance fitness was -0.788 ± 0.049.

As for N55Y, the abundance fitness is -0.161 ± 0.2.

As for N55S, the abundance fitness is -0.061 ± 0.23.

Take I58Q: the abundance fitness is -0.055 ± 0.072.

As to I58M, the abundance fitness was 0.153 ± 0.12.

As for I58Y, the abundance fitness was -0.123 ± 0.082.

For the variant I58A, the abundance fitness is -0.262 ± 0.32.

Turning to I58H, the abundance fitness was -0.033 ± 0.1.

On to I58L, for which the abundance fitness was determined as 0.094 ± 0.065.

Take I58D: the abundance fitness worked out at 0.215 ± 0.45.

Consider H54P, for which the abundance fitness is 0.102 ± 0.28.

Regarding A22P, the abundance fitness was -0.469 ± 0.05.

In the case of A22F, the abundance fitness is -0.163 ± 0.034.

Regarding A22V, the abundance fitness is -0.298 ± 0.05.

A22C: the abundance fitness is -0.264 ± 0.051.

Consider A27K, for which the abundance fitness was -0.126 ± 0.11.

As to A27D, the abundance fitness was -0.431 ± 0.23.

As to A27T, the abundance fitness was determined as 0.205 ± 0.26.

As for N56L, the abundance fitness is 0.105 ± 0.13.

Consider N56K, for which the abundance fitness was -0.109 ± 0.24.

As to N56T, the abundance fitness is -0.588 ± 0.43.

With N56Y, the abundance fitness was -0.096 ± 0.28.

Take N56G: the abundance fitness was -0.035 ± 0.41.

Turning to N56C, the abundance fitness was -0.036 ± 0.25.

As to R13E, the abundance fitness is -0.075 ± 0.066.

In the case of R13K, the abundance fitness is -0.019 ± 0.067.

Take R13I: the abundance fitness was determined as 0.05 ± 0.12.

In the case of A26R, the abundance fitness was -0.017 ± 0.028.

Regarding A26L, the abundance fitness is -0.027 ± 0.025.

On to A26M, for which the abundance fitness is -0.095 ± 0.035.

For A26Y, the abundance fitness is -0.144 ± 0.044.

Turning to A26G, the abundance fitness was -0.15 ± 0.03.

Consider A26E, for which the abundance fitness was -0.051 ± 0.044.

Turning to A26K, the abundance fitness came out at 0.04 ± 0.047.

Consider A26T, for which the abundance fitness is -0.108 ± 0.039.

With F6D, the abundance fitness is -0.293 ± 0.28.

Turning to F6K, the abundance fitness is -1.03 ± 0.42.

In the case of M57S, the abundance fitness is -0.156 ± 0.14.

In the case of M57R, the abundance fitness is -0.524 ± 0.089.

For M57V, the abundance fitness is -0.259 ± 0.19.

With M57L, the abundance fitness was -0.045 ± 0.42.

Turning to E2K, the abundance fitness was -0.121 ± 0.26.

Regarding E2Y, the abundance fitness is -0.686 ± 0.21.

Consider E2H, for which the abundance fitness is -0.221 ± 0.17.

Regarding E2I, the abundance fitness is -0.664 ± 0.37.

In the case of E2D, the abundance fitness turned out to be 0.075 ± 0.03.

Source of the values: the Human Domainome abundance scans (Beltran et al. 2025).
